Data set [1] has as its target T1, MutS (TaqMutS) (Thermus aquaticus, UniProt Q56215 Q56215:1-811).
T1 sequence: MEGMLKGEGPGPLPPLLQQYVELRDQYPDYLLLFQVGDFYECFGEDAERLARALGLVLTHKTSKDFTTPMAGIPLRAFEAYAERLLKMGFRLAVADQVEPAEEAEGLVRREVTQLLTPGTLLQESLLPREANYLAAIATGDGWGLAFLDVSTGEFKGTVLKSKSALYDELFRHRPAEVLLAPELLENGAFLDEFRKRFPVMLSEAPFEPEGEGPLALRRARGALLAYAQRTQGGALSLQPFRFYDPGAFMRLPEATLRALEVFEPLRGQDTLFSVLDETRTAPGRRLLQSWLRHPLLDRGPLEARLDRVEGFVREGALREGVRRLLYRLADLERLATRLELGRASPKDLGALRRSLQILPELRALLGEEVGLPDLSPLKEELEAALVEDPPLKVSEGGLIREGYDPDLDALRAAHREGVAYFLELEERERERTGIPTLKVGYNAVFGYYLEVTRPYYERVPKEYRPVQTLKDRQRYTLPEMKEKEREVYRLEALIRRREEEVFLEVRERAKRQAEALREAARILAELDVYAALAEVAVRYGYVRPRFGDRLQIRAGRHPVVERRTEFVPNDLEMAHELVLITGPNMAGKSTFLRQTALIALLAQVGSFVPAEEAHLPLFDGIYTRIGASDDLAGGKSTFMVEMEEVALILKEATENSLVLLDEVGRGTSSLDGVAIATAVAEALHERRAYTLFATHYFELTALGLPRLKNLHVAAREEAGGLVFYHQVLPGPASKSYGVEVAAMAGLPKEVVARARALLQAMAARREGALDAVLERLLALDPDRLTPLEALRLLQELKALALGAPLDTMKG
Particulars: error frequency 1/212 to 1/1593; 500 nM MutS, 40 nM DNA, 60 C.

Data set [2] deals with T1, MutS (TaqMutS). Description: homoduplex recovered in flow-through; white:blue ratio shifted 1:1 to 60:1. The note with it: chain copies: 2; perfect duplex. The procedure: The 410 bp white:blue test heteroduplex was used to determine the best conditions for separation of a model A or T deletion heteroduplex from perfectly matched homoduplex molecules using TaqMutS. A defined ratio of heteroduplex and homoduplex 410 bp fragments were incubated with TaqMutS at 60° C. for 20 minutes and subsequently passed through enzyme removal columns (Micropure-EZ enzyme removers from Millipore). These columns are marketed as quick alternatives to phenol/chloroform methods for removing proteins from DNA. The aim was to retain the TaqMutS protein bound to heteroduplex DNA in the column and retrieve the homoduplex DNA in the flow-through.

Where only a bound is given, the exact number is not on record here.

Regarding “354 bp synthetic DNA, error-containing population”, the activity (% errors removed) with MutS (TaqMutS) [1] is > 85.

B1: 410 bp AflIII/EcoRI homoduplex (pUC121) (dsDNA)
DNA 1: GAAGAGCGCCC
DNA 2: GGGCGCTCTTC
Regarding B1, the binding result with MutS (TaqMutS) [2] was “no binding”.

Values taken from patent US20060134638, “Error reduction in automated gene synthesis” (Blue Heron Biotechnology, Inc., published 2006).
